Paper PMC5662663 (Scientific Reports, 2017)

Legend:
[1] = target: Fluorescein-labeled variant of BtuF (BtuF_(fluo)) (Escherichia coli) (UniProt P37028); assay: fluorescence kinetics of nanobody displacement by Cbl; 10 nM BtuF_(fluo) equilibrated with 10 nM nanobody, then 1, 5 or 10 μM Cbl; slow phase of fluorescence decrease at 520 nm gives koff; kon calculated as koff/Ki; 50 mM Tris-HCl pH 7.5, 200 mM NaCl, 0.001% Tween 20, 23 °C
[2] = target: Fluorescein-labeled variant of BtuF (BtuF_(fluo)) (Escherichia coli) (UniProt P37028); assay: other fluorescence titration; equilibrium competition in solution: 5 nM BtuF_(fluo), Cbl 0.3 nM to 10 μM at a constant nanobody concentration (5 μM Nb14; 1 μM Nb7, Nb15, Nb17; 100 nM Nb9, Nb10); 50 mM Tris-HCl pH 7.5, 200 mM NaCl, 0.001% Tween 20, 23 °C; Ki fitted with Dynafit with Kd of Cbl 8.1 nM as input
[3] = target: T1, BtuF, periplasmic substrate-binding protein of the Escherichia coli vitamin B12 transporter BtuCD-F, tag-less (Escherichia coli (K12 sequence), UniProt P37028); assay: pull-down; His-tagged nanobodies immobilized on Ni-NTA, 1.5 molar excess of tagless BtuF, 1.5 hours at 4 °C; wash 50 mM Tris-HCl pH 7.5, 250 mM NaCl, 10% glycerol, 20 mM imidazole; elution 500 mM imidazole; SDS-PAGE; no Cbl; settings: both partners purified
T1 construct: the assays name the protein tag-less; also called tag-less BtuF; tagless BtuF; source: prepared as described previously [6,18], purified; not shown: His-tag (3C cleavable), C-terminal, cleaved

B1: Nanobody Nb10 (VHH)
VHH: QLQLVESGGGLVQPGGSLRLSCAASGFTLDYYAIGWFRQAPGKEREGVSCISSSGGSTNYADSVKGRFTISRDNAKNTVYLQMNSLKPEDTAVYYCAADYAGRGFCAGLYDYWSQGTPVTVSS
koff [1]: 0.0071 s⁻¹
kon [1]: 1.2e+06 M⁻¹ s⁻¹
occupancy of BtuF (fluo) with nanobody (10 nM each) [1]: 53%
Ki [2]: 6 nM

B2: Nanobody Nb14 (VHH)
VHH: QLQLVESGGGLVQPGGSLRLSCAASGFTFSSVAMSWVRQAPGKGLEWVSDINSVGSTYYADSVKGRFTISRDNAKNTVYLQMNSLKPEDTAVYYCVPLGERPEIHGGKGTPVTVSS
Ki [2]: 770 nM

B3: Nanobody Nb15 (VHH)
VHH: QVQLVESGGGLVQPGGSLRLSCTASEATLDDYAIGWFRQAPGKEREGVSCIGSSGDVTHYADSVKGRFTISRDNAKNTGYLQLNNLRPEDTAVYYCAAAHRILGGCLVIHSSDYTSSSKGTRVTVSS
notes: Alpaca nanobody selected by phage display against BtuF; source: E. coli WK6, periplasmic extract, purified (IMAC, PD10 desalting)
binding result [3]: binds
Ki [2]: 79 nM

B4: Nanobody Nb17 (VHH)
VHH: QRQLVESGGGLVQAGGSLRLSCAASGRTFSSYVMGWFRQAPGKEREAVASISWSGGSTYYADSVKGRFTISRDNAKNTVYLQMNSLKPEDTAVYYCAADHRTYYTGTYSPDYWGKGTPVTVSS
notes: as for B3
koff [1]: 0.0025 s⁻¹
kon [1]: 46000 M⁻¹ s⁻¹
occupancy of BtuF (fluo) with nanobody (10 nM each) [1]: 14%
binding result [3]: binds
Ki [2]: 54 nM

B5: Nanobody Nb7 (VHH)
VHH: QGQLVESGGGLVQPGGSLRLSCVASGFDFSNYTMSWVRQAPGKGLEWVSDISSGGGSTYYADSVKGRFTISRDNAKNTVYLQMNTLKPEDTAVYLCTELGVAPPGQGTRVTVSS
notes: as for B3
koff [1]: 0.0019 s⁻¹
kon [1]: 79000 M⁻¹ s⁻¹
occupancy of BtuF (fluo) with nanobody (10 nM each) [1]: 30%
binding result [3]: binds
Ki [2]: 24 nM

B6: Nanobody Nb9 (VHH)
VHH: QMQLVESGGGLVQPGGSLRLSCAAPESTLDDYAIGWFRQAPGKEREGVSCIGSSGDSTNYADSVKGRFTVSRDNAKNTVYLQMNDLRPEDTAVYYCAAAHRIFGGCLVIHSSGYVSWGQGTPVTVSS
notes: Alpaca nanobody selected by phage display against BtuF; additional disulfide bond between C72 (CDR2) and C128 (CDR3); source: E. coli WK6, periplasmic extract, purified (IMAC, PD10 desalting)
binding result [3]: binds
